Measured values taken from patent US20260306676A1, “FLUORESCEIN-LABELED NERVE TARGETING PEPTIDE FORMULATIONS AND RELATED METHODS” (ALUME BIOSCIENCES, INC., priority 2023, published 2026).
Structures can show the parent of a compound that is named as a salt.

How the values were obtained:
[1] = Karl Fisher water content of purified ALM-488 chloride salt; type: physicochemical; settings: oven 100° C.
Protocol: Karl Fisher titration was carried out on the chloride salt of ALM-488 using a Mettler Toledo Stromboli automatic oven sample changer. The instrument was standardized with a Hydranal® Water standard (Fluka). The solid ALM-488 sample was weighed into a sample vial and was heated to 100° C. in the oven, and the water vaporized from the sample was transferred to the titrator cell by purge gas.

[2] = Influence of storage temperature on stability of ALM-488 solution (HPLC); type: physicochemical; settings: 50 mg/mL in sterile water for injection
Protocol: To evaluate whether the ALM-488, HCl salt can be supplied in the form of a concentrated frozen solution, 50 mg/mL solutions of the HCl salt were prepared in water and evaluated for storage stability at different temperatures. The solutions having pH of 1.87 were prepared in sterile water for injection, and these solutions were stored at different storage temperatures (−20° C., 5° C. and 40° C.) and were analyzed using the HPLC method of Table 3 at different time periods.

[3] = Effect of organic amine compounds on solubility of ALM-488 (pH titration)
Protocol: To assess formulations that could be used to prepare ~50 mg/vial samples of ALM-488, and samples having an ALM-488 concentration of ~50 mg/mL, formulations having different organic amine compounds were studied. Each of these samples included (i) ALM-488 hydrochloride, (ii) a suitable base appropriate for a freeze-dried formulation (to adjust solution pH to optimal 7-8, as described in Examples 4 and 5), and (iii) at least one organic amine compound functioning as a pH-adjusting agent, bulking agent and/or a tonicity-adjusting agent. […] 55-60 mg/mL solutions of ALM-488 (pH 1.8-1.9) were titrated by gradual addition of 750 mM arginine, 1 M Tris, or 1 M meglumine.

[4] = Thermogravimetric analysis of purified ALM-488 chloride salt; type: physicochemical
[5] = pH-moderated solubility (NaOH titration) of ALM-488 salts; type: physicochemical; settings: for initial pH of mixture: before NaOH, acetate mixture ~50 mg/mL
Protocol: A titration experiment was carried out using the ALM-488, HCl salt to determine if a nominal 40-50 mg/mL or higher solubility could be retained as pH is increased by gradual addition of NaOH. […] At solution pH values <4 the peptide remained in solution at concentrations >50 mg/mL. Above pH 4, the peptide precipitated. […] Dilution of the mixture due to base addition decreased the peptide concentration to ~47 mg/mL at pH values >7.
FIG. 8 is an overlay of the titration curves for ALM-488 hydrochloride and the ALM-488 acetate.

## CC(C)[C@H](NC(=O)[C@H](Cc1ccc(O)cc1)NCCCCC(=O)[C@H](Cc1ccc(O)cc1)NC(=O)[C@@H]1CCCN1C(=O)[C@H](CCC(=O)O)NC(=O)[C@H](CCC(=O)O)NC(=O)[C@H](Cc1c[nH]c2ccccc12)NC(=O)[C@@H]1CCCN1C(=O)[C@@H](NC(=O)[C@H](CCC(N)=O)NC(=O)c1ccc2c(c1)C(=O)OC21c2ccc(O)cc2Oc2cc(O)ccc21)C(C)C)C(=O)N[C@H](C(=O)N[C@@H](CCCCN)C(=O)N[C@@H](CCCCN)C(=O)N[C@@H](CO)C(=O)N[C@@H](CO)C(=O)NCC(=O)NCC(N)=O)C(C)C [ALM-488, HCl salt]
[1]
  water content: 4.08%
[2]
  solution pH: 1.87
[3]; 107 mM tris (pH 7.3)
  Calculated total ALM-488 peptide concentration: 49.2 mg/mL
[3]; 116 mM arginine (pH 7.61)
  Calculated total ALM-488 peptide concentration: 51.7 mg/mL
[3]; l-arginine titration
  solubility: < 50 mg/mL
[3]; meglumine titration
  solubility: < 50 mg/mL
[3]; meglumine titration end (printed 107 mm tris)
  solution pH: 7.88
[3]; meglumine titration, pH 7.88
  Calculated total ALM-488 peptide concentration: 49.2 mg/mL
[3]; no L-arginine added
  solution pH: 1.86
[3]; no L-arginine added (pH 1.86)
  Calculated total ALM-488 peptide concentration: 55 mg/mL
[3]; no Tris added
  solution pH: 1.89
[3]; no Tris added (pH 1.89)
  Calculated total ALM-488 peptide concentration: 55 mg/mL
[3]; no meglumine added
  solution pH: 1.86
[3]; no meglumine added (pH 1.86)
  Calculated total ALM-488 peptide concentration: 55 mg/mL
[3]; tromethamine (tris) titration
  solubility: < 50 mg/mL
[3]; with 107 mM tris
  solution pH: 7.3
[3]; with 116 mM arginine
  solution pH: 7.61
[4]; TGA
  onset of steep decrease in weight, presumably degradation: 200-250 °C
[4]; heated to 100° C.
  weight loss by TGA: 3.96%
[5]; NaOH titration
  pH of resistance to pH change upon base addition (may coincide with pKa of glutamic acid and 5-FAM), first: ~ 4.5
  pH of resistance to pH change upon base addition (may coincide with pKa of glutamic acid and 5-FAM), second: ~ 6.5
[5]; above pH 4, NaOH titration
  precipitation: precipitated
[5]; listed as ALM-488 hydrochloride
  initial pH of mixture: ~ 1.8
[5]; pH >7, NaOH titration
  dissolution: complete dissolution
[5]; pH >7, after dilution by base addition
  peptide concentration in solution: ~ 47 mg/mL
[5]; pH ~4.5 to 5.5, NaOH titration
  appearance: opaque dispersion
[5]; pH ~6.5, NaOH titration
  appearance: clarification of the mixture
[5]; water with naoh, pH <4, NaOH titration, read-out: concentration remaining in solution
  solubility: > 50 mg/mL
[5]; water, visual assessment, solution pH <2, read-out: solubility
  solubility: > 180 mg/mL
[5]; ~55 mg/mL in water, start of titration
  solution pH: 1.7

## CC(C)[C@H](NC(=O)[C@H](Cc1ccc(O)cc1)NCCCCC(=O)[C@H](Cc1ccc(O)cc1)NC(=O)[C@@H]1CCCN1C(=O)[C@H](CCC(=O)O)NC(=O)[C@H](CCC(=O)O)NC(=O)[C@H](Cc1c[nH]c2ccccc12)NC(=O)[C@@H]1CCCN1C(=O)[C@@H](NC(=O)[C@H](CCC(N)=O)NC(=O)c1ccc2c(c1)C(=O)OC21c2ccc(O)cc2Oc2cc(O)ccc21)C(C)C)C(=O)N[C@H](C(=O)N[C@@H](CCCCN)C(=O)N[C@@H](CCCCN)C(=O)N[C@@H](CO)C(=O)N[C@@H](CO)C(=O)NCC(=O)NCC(N)=O)C(C)C [ALM-488 acetate]
[5]
  initial pH of mixture: ~ 4
[5]; compared with hydrochloride salt
  amount of NaOH required to adjust pH to ~7: lower than that for the hydrochloride salt
[5]; initial pH ~4, ~50 mg/mL
  dissolution / appearance: did not completely dissolve and formed an opaque orange dispersion
[5]; pH >7, NaOH added
  appearance: clear solution
